From US20250057965A1, “PEPTIDE OLIGONUCLEOTIDE CONJUGATES” (Sarepta Therapeutics, Inc., priority 2015, published 2025)
Several values for one entry are separate records, joined by “and”; a condition that tells them apart may be missing. Equal entries are not always repeated.

Assays:
[1] = Individual body weights in dose response study; type: in vivo, Mouse (mdx); conditions: mdx mice
Method: (§1) Any animal showing signs of distress, particularly if death appeared imminent was humanely euthanized according to Numira Biosciences Standard Operating Procedures. Body weights were recorded on the day after arrival, the day of dosing, and the day of necropsy. Detailed clinical observations were conducted and recorded at 0 minutes, 15 minutes, and 2 hours post-dose to assess tolerability of injections.

[2] = Maximum tolerated dose (MTD) study in mdx mice: survival and in-life observations; type: in vivo, Mouse (mdx); conditions: for MTD % Survival / MTD in-life observations: n=3
Method: The maximum tolerated dose (MTD) of selected peptide-oligomer-conjugates of the disclosure was determined in mice according to the regimens shown in Table 8. […] PPMO-5 has a MTD>200 mg/kg.
Importantly, the toxicity of a peptide-oligomer-conjugate can be described in two phases: t1 and t2. t1 refers to rapid death, or death within 48 hours, most likely due to cardiopulmonary collapse. t2 refers to chronic kidney toxicity, observed with a peptide-oligomer-conjugate after multiple weekly doses. The MTD measurements described herein refer to ti toxicity (48 hour endpoint).

[3] = Animal health / clinical observations in dose response study; type: in vivo
Method: (§2) The day of dosing on the study was designated as Study Day 1. Each peptide-oligomer-conjugate was vortexted for approximately 10 seconds prior to dosing, and administered via tail vein as a slow push bolus (˜5 seconds; 200 μL). Dosing was performed over two days. All animals receiving the same peptide-oligomer-conjugate were dosed on the same day. […] Any remaining spare animals were necropsied and tissues collected as specified below.
as §1
Animals unlikely to survive until the next scheduled observation were weighed and euthanized. Animals found dead were weighed and the time of death was estimated as closely as possible. Blood and tissue samples were not collected.
The partial gross necropsy included examination and documentation of findings. All external surfaces and orifices were evaluated. All abnormalities observed during the collection of the tissues listed below were described completely and recorded. No additional tissues were taken.

[4] = set-up: species or system Mouse (mdx); conditions: mouse, in vivo
Text: BUN levels are increased when compared to PPMO-8.

dystrophin exon 23 = test: Dose response for efficacy in mdx mice: % exon 23 skipping by nested RT-PCR; type: in vivo, Mouse (mdx); conditions: for % Exon 23 Skip (Average), Diaphragm / % Exon 23 Skip (Average), Heart / % Exon 23 Skip (Average), Quadricep (L): mdx mice, 7 days post-dose, n=5
Text: The aim of this study was to compare efficacy of peptide-oligomer-conjugates of the disclosure in a dose response study in mice. The spacing between the peptide and PMO modulates efficacy. Accordingly, PEG lengths of 3, 4, and 8 were used to systematically increase spacing between Ac-R6-Gly (SEQ ID NO:1) and the PMO. Additionally, an all-D amino acid version of Ac-R6-Gly (SEQ ID NO:1) and Ac-R6-Apa (SEQ ID NO:4) (4-amino phenyl acetic acid; aromatic, hydrophobic linker) were used (Table 2).
Selected peptide-oligomer-conjugates that were tested are listed in Table 2 (the peptide-oligomer-conjugates were formulated in saline and stored at 5° C.).
Animals were randomized into treatment groups based on cage weights as specified in Table 4.
as §2
On day 8 (7 days post-dose), all animals, including any untreated or spare animals, were humanely euthanized with carbon dioxide. Euthanasia was performed in accordance with accepted American Veterinary Medical Association (AVMA) guidelines on Euthanasia, June 2007.
Tissues were collected within 15 minutes or less of euthanasia. All instruments and tools used were changed between treatment groups. All tissues were flash frozen and stored at a temperature lower than −70° C. as soon as possible after collection. The following tissues were collected: liver, kidneys, heart, quads, and diaphragm.
RNA from mouse quadriceps, heart, and diaphragm tissue was purified using GE Illustra RNAspin 96 well extraction kits. Briefly, 400 μL of lysis buffer (RA1+1% 2-mercaptoethanol was added to about 20-30 mg of frozen tissue in a plate with zirconia beads (Biospec) and homogenized using GenoGrinder (Spex Sample Prep) at 4×8 minutes at 1750 RPM; cooling between each run. The homogenate was immediately processed for RNA purification according to the GE RNAspin Illustra 96 well protocol. Total RNA was quantitated with a Nanodrop 2000 spectrophotometer (ThermoScientific).
RNA was analyzed by a classic nested PCR reaction. RT-PCR reagents were from Invitrogen unless otherwise specified. PCR reactions were run in a CFX96 or S1000 thermocycler (BioRad). Final cDNA products were separated on a NuPage 10% TBE gel (Invitrogen) run at 200V, 1 hr at room temperature. Gels were scanned with a Typhoon Trio (GE Healthcare) using a 670 BP 30 Cy5 emission filter and analyzed with ImageQuant software.
Primers used for PCR analysis were as follows: dystrophin outer forward (5′-[…]-3′; SEQ ID NO:9), dystrophin outer reverse (5′-[…]-3′; SEQ ID NO:10), dystrophin inner forward (5′-[…]-3′; SEQ ID NO:11), and dystrophin inner reverse (5′-[…]-3′; SEQ ID NO:12).

[5] = 5 mg/kg single i.v., day 8, one value per animal, 5 mg/kg
[6] = 10 mg/kg single i.v., day 8, one value per animal, 10 mg/kg
[7] = 20 mg/kg single i.v., day 8, one value per animal, 20 mg/kg
[8] = 40 mg/kg single i.v., day 8, one value per animal (FD = found dead), 40 mg/kg
[9] = 80 mg/kg single i.v., day 8, one value per animal, 80 mg/kg
[10] = 100 mg/kg single i.v. injection
[11] = 150 mg/kg single i.v. injection
[12] = 200 mg/kg single i.v. injection

Compound	Individual body weight, pre-necropsy [1, 5]	Individual body weight, pre-necropsy [1, 6]	Individual body weight, pre-necropsy [1, 7]	Individual body weight, pre-necropsy [1, 8]	Individual body weight, pre-necropsy [1, 9]	MTD % Survival ([2]; 50 mg/kg single i.v. injection) [%]	MTD % Survival [2, 10] [%]	MTD in-life observations ([2]; 100 mg/kg single i.v.)	MTD % Survival [2, 11] [%]	MTD in-life observations ([2]; 150 mg/kg single i.v.)	MTD % Survival [2, 12] [%]	MTD in-life observations ([2]; 200 mg/kg single i.v.)	also measured
CC(=O)N[C@@H](CCCNC(=N)N)C(=O)N[C@@H](CCCNC(=N)N)C(=O)N[C@@H](CCCNC(=N)N)C(=O)N[C@@H](CCCNC(=N)N)C(=O)N[C@@H](CCCNC(=N)N)C(=O)N[C@@H](CCCNC(=N)N)C(=O)NCC(=O)N1CCN(C(=O)OCCOCCOCCOC(=O)N2C[C@@H](COP(=O)(N(C)C)N3C[C@@H](COP(=O)(N(C)C)N4C[C@@H](COP(=O)(N(C)C)N5C[C@@H](COP(=O)(N(C)C)N6C[C@@H](COP(=O)(N(C)C)N7C[C@@H](COP(=O)(N(C)C)N8C[C@@H](COP(=O)(N(C)C)N9C[C@@H](COP(=O)(N(C)C)N%10C[C@@H](COP(=O)(N(C)C)N%11C[C@@H](COP(=O)(N(C)C)N%12C[C@@H](COP(=O)(N(C)C)N%13C[C@@H](COP(=O)(N(C)C)N%14C[C@@H](COP(=O)(N(C)C)N%15C[C@@H](COP(=O)(N(C)C)N%16C[C@@H](COP(=O)(N(C)C)N%17C[C@@H](COP(=O)(N(C)C)N%18C[C@@H](COP(=O)(N(C)C)N%19C[C@@H](COP(=O)(N(C)C)N%20C[C@@H](COP(=O)(N(C)C)N%21CCN(C(=O)OCCOCCOCCO)CC%21)O[C@@H](n%21cnc%22c(=O)[nH]c(N)nc%22%21)C%20)O[C@@H](n%20ccc(N)nc%20=O)C%19)O[C@@H](n%19cc(C)c(=O)[nH]c%19=O)C%18)O[C@@H](n%18cnc%19c(N)ncnc%19%18)C%17)O[C@@H](n%17cc(C)c(=O)[nH]c%17=O)C%16)O[C@@H](n%16cc(C)c(=O)[nH]c%16=O)C%15)O[C@@H](n%15cnc%16c(N)ncnc%16%15)C%14)O[C@@H](n%14ccc(N)nc%14=O)C%13)O[C@@H](n%13ccc(N)nc%13=O)C%12)O[C@@H](n%12cc(C)c(=O)[nH]c%12=O)C%11)O[C@@H](n%11cc(C)c(=O)[nH]c%11=O)C%10)O[C@@H](n%10cnc%11c(N)ncnc%11%10)C9)O[C@@H](n9cnc%10c(N)ncnc%109)C8)O[C@@H](n8ccc(N)nc8=O)C7)O[C@@H](n7ccc(N)nc7=O)C6)O[C@@H](n6ccc(N)nc6=O)C5)O[C@@H](n5cnc6c(N)ncnc65)C4)O[C@@H](n4cnc5c(=O)[nH]c(N)nc54)C3)O[C@@H](n3cc(C)c(=O)[nH]c3=O)C2)CC1 (stereo partly drawn) [PPMO-4]	21.45 g and 22.61 g and 19.15 g and 19.6 g and 21.53 g	19.41 g and 21.91 g and 18.98 g and 20.43 g and 20.49 g	20.09 g and 21.25 g and 22.62 g and 20.71 g and 17.08 g	20.59 g and 18.25 g and 22.63 g and 21.35 g and 21.22 g	23.86 g and 17.9 g and 21.36 g and 21.1 g and 20.69 g	100	100	3/3 slow to recover at 15 min., ok by 2 hours	100	3/3 lethargic at 15 min., ok by 2 hours	0	3/3 lethargic at 15 min and 2 hours, 3/3 dead at 24 hours	Animal health observation ([3]; 5 mg/kg, at necropsy, animal 2406): right eye closed and had a white substance exuding from it; Animal health observation ([3]; 40 mg/kg single i.v.): slow to recover at the 15 minute observation but recovered by the 2 hour observation; Animal health observation ([3]; 80 mg/kg single i.v.): slow to recover at the 15 minute observation but recovered by the 2 hour observation
Ac-dR6-G (all-D amino acid R) (SEQ ID NO: 8) (RRRRRRG; N-acetyl; all-D amino acids; SITE 1 acetylation of N terminus; SITE 1..6 D-Arginine) [PPMO-7]	22.3 g and 22.46 g and 23.21 g and 21.43 g and 23.41 g	17.85 g and 22.7 g and 23.56 g and 21.97 g and 21.8 g	20.85 g and 20.17 g and 21.1 g and 21.38 g and 24.55 g	22.58 g and 22.21 g and 21.29 g and 18.19 g and 20.93 g	21.98 g and 22.63 g and 19.65 g and 19.9 g and 22.86 g	100	100	3/3 slow to recover at 15 min., ok by 2 hours	100	3/3 slow to recover at 15 min., ok by 2 hours	33	2/3 dead at 15 minutes, 1/3 lethargic at 15 min and 2 hours	Tolerability ([2]; MTD study, in words): not well-tolerated; Liver and kidney serum chemistry markers [4]: increased liver and kidney serum chemistry markers; Efficacy (% exon 23 skipping), in words (dystrophin exon 23; comparison with other conjugates / linkers): improved efficacy; % Exon 23 Skip (Average), Diaphragm (dystrophin exon 23; 5 mg/kg single i.v. injection): 1%; % Exon 23 Skip (Average), Heart (dystrophin exon 23; 5 mg/kg single i.v. injection): 0%; % Exon 23 Skip (Average), Quadricep (L) (dystrophin exon 23; 5 mg/kg single i.v. injection): 4%; % Exon 23 Skip (Average), Diaphragm (dystrophin exon 23; 10 mg/kg single i.v. injection): 6%; % Exon 23 Skip (Average), Heart (dystrophin exon 23; 10 mg/kg single i.v. injection): 2%; % Exon 23 Skip (Average), Quadricep (L) (dystrophin exon 23; 10 mg/kg single i.v. injection): 11%; % Exon 23 Skip (Average), Diaphragm (dystrophin exon 23; 20 mg/kg single i.v. injection): 30%; % Exon 23 Skip (Average), Heart (dystrophin exon 23; 20 mg/kg single i.v. injection): 13%; % Exon 23 Skip (Average), Quadricep (L) (dystrophin exon 23; 20 mg/kg single i.v. injection): 53%; % Exon 23 Skip (Average), Diaphragm (dystrophin exon 23; 40 mg/kg single i.v. injection): 67%; % Exon 23 Skip (Average), Heart (dystrophin exon 23; 40 mg/kg single i.v. injection): 42%; % Exon 23 Skip (Average), Quadricep (L) (dystrophin exon 23; 40 mg/kg single i.v. injection): 89%; % Exon 23 Skip (Average), Diaphragm (dystrophin exon 23; 80 mg/kg single i.v. injection): 93%; % Exon 23 Skip (Average), Heart (dystrophin exon 23; 80 mg/kg single i.v. injection): 93%; % Exon 23 Skip (Average), Quadricep (L) (dystrophin exon 23; 80 mg/kg single i.v. injection): 92%
